Source: US20240132575A1 (MEMO THERAPEUTICS, published 2024)
Where two headings read alike, the source gives them in different places.

T1: BKV serotype III VP1 pentamer (VP1-III) (BK virus serotype III, UniProt P14996 31-300)
T1 construct: also called BKV-VP1 serotype III
T1 sequence: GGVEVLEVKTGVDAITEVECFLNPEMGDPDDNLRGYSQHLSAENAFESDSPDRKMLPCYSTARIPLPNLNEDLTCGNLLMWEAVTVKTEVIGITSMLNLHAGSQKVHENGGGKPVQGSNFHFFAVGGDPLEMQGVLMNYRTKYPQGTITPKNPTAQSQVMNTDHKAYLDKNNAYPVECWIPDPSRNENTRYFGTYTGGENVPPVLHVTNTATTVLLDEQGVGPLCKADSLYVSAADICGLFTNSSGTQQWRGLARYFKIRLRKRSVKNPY

T2: BKV serotype II VP1 pentamer (VP1-II) (BK virus serotype II, UniProt P14996 31-300)
T2 construct: VP1 pentamer construct; also called BKV-VP1 serotype II
T2 chain: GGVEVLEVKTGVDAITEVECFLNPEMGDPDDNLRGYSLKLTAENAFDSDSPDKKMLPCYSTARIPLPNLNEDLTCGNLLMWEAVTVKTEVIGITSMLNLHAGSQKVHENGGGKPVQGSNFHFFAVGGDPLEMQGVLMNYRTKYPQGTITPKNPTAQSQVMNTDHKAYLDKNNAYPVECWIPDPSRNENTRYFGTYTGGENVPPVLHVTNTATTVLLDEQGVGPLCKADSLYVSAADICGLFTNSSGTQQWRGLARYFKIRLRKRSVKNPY

T3: BKV serotype I VP1 pentamer (VP1-I) (BK virus serotype I, UniProt P03088 31-300)
T3 construct: also called BKV-VP1 serotype I
T3 chain: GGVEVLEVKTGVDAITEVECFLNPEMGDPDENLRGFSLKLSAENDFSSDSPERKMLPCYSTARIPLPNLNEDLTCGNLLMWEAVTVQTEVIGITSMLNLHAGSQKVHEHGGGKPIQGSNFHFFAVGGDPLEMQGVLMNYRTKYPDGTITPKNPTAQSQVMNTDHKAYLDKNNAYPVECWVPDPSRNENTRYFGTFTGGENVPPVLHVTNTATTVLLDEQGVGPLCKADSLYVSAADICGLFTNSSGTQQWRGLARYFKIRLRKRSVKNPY

T4: BKV serotype Ia VP1 on BK pseudovirus (VP1-Ia) (BK virus serotype Ia, UniProt P03088 1-362)
T4 chain: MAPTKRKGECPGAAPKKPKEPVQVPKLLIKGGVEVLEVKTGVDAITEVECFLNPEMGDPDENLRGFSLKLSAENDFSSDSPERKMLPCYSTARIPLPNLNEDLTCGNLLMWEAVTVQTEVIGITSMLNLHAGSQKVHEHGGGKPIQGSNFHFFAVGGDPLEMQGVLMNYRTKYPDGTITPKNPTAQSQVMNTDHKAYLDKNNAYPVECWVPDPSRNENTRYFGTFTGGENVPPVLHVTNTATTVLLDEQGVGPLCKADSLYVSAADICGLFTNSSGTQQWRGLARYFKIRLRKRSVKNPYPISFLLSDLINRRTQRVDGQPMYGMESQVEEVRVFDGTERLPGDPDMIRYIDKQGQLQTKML

T5: BKV serotype III VP1 on BK pseudovirus (VP1-III) (BK virus serotype III, UniProt P14996 1-362)
T5 sequence: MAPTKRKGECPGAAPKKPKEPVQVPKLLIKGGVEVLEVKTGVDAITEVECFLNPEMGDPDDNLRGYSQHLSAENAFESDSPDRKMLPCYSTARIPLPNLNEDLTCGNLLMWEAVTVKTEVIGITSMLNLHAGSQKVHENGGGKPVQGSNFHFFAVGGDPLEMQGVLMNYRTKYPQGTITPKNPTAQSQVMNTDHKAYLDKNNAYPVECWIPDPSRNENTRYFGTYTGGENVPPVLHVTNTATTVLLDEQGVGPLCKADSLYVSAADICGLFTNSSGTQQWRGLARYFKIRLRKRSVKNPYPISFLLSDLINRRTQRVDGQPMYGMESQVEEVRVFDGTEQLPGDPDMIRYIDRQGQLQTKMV

T6: BKV serotype IV VP1 on BK pseudovirus (VP1-IVc) (BK virus serotype IV, UniProt P14996 1-362)
T6 chain: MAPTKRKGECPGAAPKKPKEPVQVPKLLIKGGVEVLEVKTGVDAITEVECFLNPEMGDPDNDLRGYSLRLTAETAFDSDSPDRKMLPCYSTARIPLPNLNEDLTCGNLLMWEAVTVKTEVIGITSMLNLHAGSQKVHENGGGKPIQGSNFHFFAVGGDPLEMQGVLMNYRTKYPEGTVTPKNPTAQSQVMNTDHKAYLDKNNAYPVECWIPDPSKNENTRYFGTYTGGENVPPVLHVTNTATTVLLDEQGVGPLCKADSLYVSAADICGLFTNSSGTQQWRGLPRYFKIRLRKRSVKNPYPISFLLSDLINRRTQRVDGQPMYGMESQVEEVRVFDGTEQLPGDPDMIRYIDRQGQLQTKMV

T7: BKV serotype Ib VP1 on BK pseudovirus (VP1-Ib) (BK virus serotype Ib, UniProt P03088 1-362)
T7 chain: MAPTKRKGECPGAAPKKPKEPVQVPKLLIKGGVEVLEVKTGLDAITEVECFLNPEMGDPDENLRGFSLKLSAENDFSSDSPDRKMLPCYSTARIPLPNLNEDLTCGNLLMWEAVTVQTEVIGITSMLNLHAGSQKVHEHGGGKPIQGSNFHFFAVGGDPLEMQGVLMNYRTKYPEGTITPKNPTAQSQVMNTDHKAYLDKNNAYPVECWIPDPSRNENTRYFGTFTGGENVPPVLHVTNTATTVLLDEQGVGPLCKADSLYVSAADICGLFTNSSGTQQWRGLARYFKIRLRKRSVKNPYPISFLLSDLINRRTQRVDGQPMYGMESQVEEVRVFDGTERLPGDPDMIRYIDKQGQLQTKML

T8: BKV serotype II VP1 on BK pseudovirus (VP1-II) (BK virus serotype II, UniProt P14996 1-362)
T8 chain: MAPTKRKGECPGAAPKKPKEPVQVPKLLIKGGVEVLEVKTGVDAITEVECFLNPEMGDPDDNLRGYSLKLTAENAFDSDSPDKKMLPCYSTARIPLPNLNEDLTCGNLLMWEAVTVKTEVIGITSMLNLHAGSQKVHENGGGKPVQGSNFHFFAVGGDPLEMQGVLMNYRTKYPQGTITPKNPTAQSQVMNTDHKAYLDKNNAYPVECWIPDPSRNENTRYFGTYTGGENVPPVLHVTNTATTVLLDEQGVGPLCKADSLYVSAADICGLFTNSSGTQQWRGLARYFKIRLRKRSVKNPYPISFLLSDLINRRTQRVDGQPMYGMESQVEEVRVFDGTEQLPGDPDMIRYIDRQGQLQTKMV

T9: BKV serotype IV VP1 pentamer (VP1-IV) (BK virus serotype IV, UniProt P14996 31-300)
T9 construct: also called BKV-VP1 serotype IV
T9 chain: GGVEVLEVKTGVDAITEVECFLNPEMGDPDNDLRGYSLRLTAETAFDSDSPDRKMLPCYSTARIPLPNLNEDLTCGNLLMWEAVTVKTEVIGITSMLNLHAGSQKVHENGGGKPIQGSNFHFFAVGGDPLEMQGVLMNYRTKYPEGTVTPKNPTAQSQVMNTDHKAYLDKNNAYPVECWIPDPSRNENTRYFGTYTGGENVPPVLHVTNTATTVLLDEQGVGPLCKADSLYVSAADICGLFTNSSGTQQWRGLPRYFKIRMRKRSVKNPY


How the values were obtained:
JCV VP1 pentamer = target: T10, JCV VP1 pentamer (JC virus, UniProt P03089 23-292); assay: ELISA on coated JCV-VP1 pentamer
T10 construct: also called JC-VP1; VP1 of the JC virus
T10 sequence (P03089 23-292 limits assumed): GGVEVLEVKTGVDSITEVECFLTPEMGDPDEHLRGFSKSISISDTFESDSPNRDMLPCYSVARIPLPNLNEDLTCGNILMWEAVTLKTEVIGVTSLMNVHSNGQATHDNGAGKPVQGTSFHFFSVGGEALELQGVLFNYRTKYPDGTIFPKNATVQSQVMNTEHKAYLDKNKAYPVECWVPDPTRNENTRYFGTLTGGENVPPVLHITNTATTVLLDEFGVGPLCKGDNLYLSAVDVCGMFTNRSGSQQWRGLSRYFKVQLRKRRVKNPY

[1] = target: T1, BKV serotype III VP1 pentamer (VP1-III); assay: ELISA, VP1 pentamer coated, IgG titrated (EC50E)
Protocol: (§1) The binding of anti-BK virus antibodies to BKV-VP1 pentamers was analyzed by ELISA. […] Antibodies were serially diluted in PBS with 0.5% skim milk powder and added to the antigen-coated plates for 1.5 h. […] Plates were washed three times with PBS containing 0.05% Tween 20. The reaction was developed using 30 μl/well TMB liquid substrate (Sigma-Aldrich, #T0440) and stopped with 15 μl/well H₂SO₄. […] Data were fitted and apparent EC50 ELISA values (EC50E) were determined by three-parameter analysis in GraphPad Prism (GraphPad Software).

[2] = target: T2, BKV serotype II VP1 pentamer (VP1-II); assay: ELISA, VP1 pentamer coated, IgG titrated (EC50E)
Protocol: as §1

[3] = target: T3, BKV serotype I VP1 pentamer (VP1-I); assay: ELISA, VP1 pentamer coated, IgG titrated (EC50E)
Protocol: as §1

[4] = target: T4, BKV serotype Ia VP1 on BK pseudovirus …; assay: cell-based or functional assay
[5] = target: T5, BKV serotype III VP1 on BK pseudovirus …; assay: cell-based or functional assay
[6] = target: T6, BKV serotype IV VP1 on BK pseudovirus …; assay: cell-based or functional assay
[7] = target: T7, BKV serotype Ib VP1 on BK pseudovirus …; assay: cell-based or functional assay
[8] = target: T8, BKV serotype II VP1 on BK pseudovirus …; assay: cell-based or functional assay
[9] = target: T4, BKV serotype Ia VP1 on BK pseudovirus …; assay: cell-based or functional assay
[10] = target: T5, BKV serotype III VP1 on BK pseudovirus …; assay: cell-based or functional assay; remark: listed apart in the source
[11] = target: T6, BKV serotype IV VP1 on BK pseudovirus …; assay: cell-based or functional assay
[12] = target: T7, BKV serotype Ib VP1 on BK pseudovirus …; assay: cell-based or functional assay
[13] = target: T8, BKV serotype II VP1 on BK pseudovirus …; assay: cell-based or functional assay
[14] = target: T9, BKV serotype IV VP1 pentamer (VP1-IV); assay: ELISA, VP1 pentamer coated, IgG titrated (EC50E)
Protocol: as §1

[15] = target: T1, BKV serotype III VP1 pentamer (VP1-III); assay: ELISA, VP1 pentamer coated, IgG titrated (EC50E); remark: listed apart in the source
Protocol: as §1

[16] = target: T2, BKV serotype II VP1 pentamer (VP1-II); assay: ELISA, VP1 pentamer coated, IgG titrated (EC50E)
Protocol: as §1

| Binder | binding result (JCV VP1 pentamer) | EC50 [1] | EC50 [2] | EC50 [3] | IC50 (nM), neutralization of BK-Pseudovirus (NanoLuc luciferase, 293TT cells) [4] | IC50 (nM), neutralization of BK-Pseudovirus (NanoLuc luciferase, 293TT cells) [5] | IC50 (nM), neutralization of BK-Pseudovirus (NanoLuc luciferase, 293TT cells) [6] | IC50 (nM), neutralization of BK-Pseudovirus (NanoLuc luciferase, 293TT cells) [7] | IC50 (nM), neutralization of BK-Pseudovirus (NanoLuc luciferase, 293TT cells) [8] | IC50 (nM), neutralization of BK-Pseudovirus (NanoLuc luciferase, 293TT cells) [9] | IC50 (nM), neutralization of BK-Pseudovirus (NanoLuc luciferase, 293TT cells) [10] | IC50 (nM), neutralization of BK-Pseudovirus (NanoLuc luciferase, 293TT cells) [11] | IC50 (nM), neutralization of BK-Pseudovirus (NanoLuc luciferase, 293TT cells) [12] | IC50 (nM), neutralization of BK-Pseudovirus (NanoLuc luciferase, 293TT cells) [13] | EC50 [14] | EC50 [15] | EC50 [16] |
| --- | --- | --- | --- | --- | --- | --- | --- | --- | --- | --- | --- | --- | --- | --- | --- | --- | --- |
| antibody 319C07 (antibody, human IgG1, kappa, V domains shown, also called 319C7) VH: QVQLQQWGAGLLKPSETLSLTCAVYRGSFSAYYWTWFRQPPGKGLEWIGEINHRGYTNYNPSLRGRVSISVDTSKKQFSLKLRSVNAADTAVYYCATLRSTSGWHDYFDYWGQGTLVTVSS VL: EIVLTQSPGTLSLSPGERATLSCRASQSVSSSYLAWYQQTPGQAPRLLIYGASSRATGIPDRFSGSGSGTDFTLTISRLEPEDFVVYFCLQYGSSPLTFGPGTKVDIKR | no binding | 0.06 nM | 0.06 nM | 0.05 nM | 0.007 nM | 0.058 nM | 0.032 nM | 0.007 nM | 0.01 nM |  |  |  |  |  |  |  |  |
| comparative antibody P8D11 (WO 2017/046676) (antibody, human IgG1, lambda, V domains shown, also called BM2) VH: QVQLVESGGTLVQPGGSLRLSCAASGFTFNNYWMTWVRQAPGKGLEWVANIKKDGSEKYYVDSVRGRFTISRDNAKNSLFLQMNSLRPEDTAVYFCATVRSGRYFALDDWGQGTLVTVSS VL: QSVLTQPPSVSVAPGKTARITCGGDNIGSRPVHWYQQKPGQAPILVVYDDSNRPSGIPERFSGSNSGNTATLTISRVEAGDEADYYCQVWSSSTDHPFGGGTKVTVLG | binds |  |  |  | 0.391 nM | 0.176 nM | 2.91 nM | 0.392 nM | 0.565 nM | 0.391 nM | 0.176 nM | 2.91 nM | 0.392 nM | 0.565 nM |  |  |  |
| antibody 336F07 (antibody, human IgG1, kappa, V domains shown, also called 336FC07) VH: EEPLLESGGGLVQPGGSLRLSCAASGFTFRLYAMNWVRQAPGKGLEWVSLISGSGTATYYADSVTGRFSISRDNYKNRVYLQMDSLRADDTATYYCAKTYPTWGGVVIGAIDVWGQGTTVTVSS VL: DIQMTQSPSTLSASVGDRVTITCRASQSIQRWLAWHQQKPGRAPKVLIHDASTLESGVPSRFSGSGSGTEFTLTISSLQPDDFATYYCQQYNGHASTFGPGTKVDIKR | no binding |  |  |  |  |  |  |  |  | 0.094 nM | 0.019 nM | 0.018 nM | 0.103 nM | 0.02 nM | 0.03 nM | 0.02 nM | 0.03 nM |
